Data from the DeepSol protein solubility set.

Assay: soluble on expression in E. coli; label from the status in PepcDB or PDB records
For “MAHHHHHHMKRRCDLLEVHSVAARPHKRGGTETTREHHFPLYSHPMFRAARHNANAVQDAVAEQSDRVDPGALDAALENMVTQLVEQRLSRHEAEGDTSPTLAKKNFIVTESELLALLAEATHATPLSPRPQQPPSAFPPSRPEAIAALAAAAAASSPPPQQGPFIPNQGYHTTHPPLQSNGDAERRAGPPPRTQASLFSGAASALGGDEPDELNVVSVGALQQAALRSLGHMDEQAAPRLPPLSESVASTTSGPTTKQRHPPTMPLYSLLPCLVASPGLTAASVLPAIVSSSLNPSPSSVTFREMDRCPGTGTGLVAQQSVDAQQLHQVPDAVFAAMDVLMDGNNCCMRRRKRLVATNGNKAESLSLNPRCLPGSGGGASGGSCFAFGCGSKGASLNRMYVPVAQNTLPAPPPPRTASEAKARRILEGQRRKQRLHDQQQHLVSNSFSLAGGGNTAPLSSSLVEFRSDTTSLPTEPFRWRHIDRSGSRTHSSAHPAPLPAASSVSRSAAVVVGTASTLPLTQEASLTFTLRDIAGEPVYMQAISAANRCWPASLI”, the “soluble on expression in E. coli” value was “not soluble”.
For “MRKCRCLKLRNVKLINIRRIAVMMRSSKMASERSTDVQAFIGELDGGVFETKIGAVLSEVASGVMNTKTKGKVSLNLEIEPFDENRLKIKHKLSYVRPTNRGKISEEDTTETPMYVNRGGRLTILQEDQGQLLTLAGEPDGKLRAAGHMAGDPLEHHHHHH”, the “soluble on expression in E. coli” value was “soluble”.
For “MIDEYDDLAHDSSEGEFEPNTLTPEEKPPHNVDEDRIESTGVAAPMQGTEEPEKGDQKESDGASQVDQSVEITRPETSYYQTLESPSTKRQKLDQQGNGDQTRDFGTSMEL”, the “soluble on expression in E. coli” value was “soluble”.
For “MMAARLLGTSSRIFKLNKHLHTSKVAFMPVVQFKLSDIGEGIAEVQVKEWYVKEGDTISQFDKVCEVQSDKAAVTISCRYDGIVKKLYHEVDGMARVGQALIDVEIEGNVEEPEQPKKEAASSSPEAPKSSAPKAPESAHSEGKVLATPAVRRIAIENKIKLAEVRGTGKDGRVLKEDVLKFLGQVPADHTSGSTNIRTTHQAPQPSSKSYEPLKEDVAVPIRGYTRAMVKTMTEALKIPHFGYNDEINVDSLVKYRAELKEFAKERHIKLSYMPFFIKAASLALLEYPSLNSTTDEKMENVIHKASHNICLAMDTPGGLVVPNIKNCEQRSIFEIAQELNRLLEAGKKQQIKREDLIDGTFSLSNIGNIGGTYASPVVFPPQVAIGAIGKIEKLPRFDKHDNVIPVNIMKVSWCADHRVVDGATMARFSNRWKFYLEHPSAMLAQLK”, the “soluble on expression in E. coli” value was “not soluble”.
With “MNHAQLRRVTAESFAHYRHGLAQLLFETVHGGASVGFMADLDMQQAYAWCDGLKADIAAGSLLLWVVAEDDNVLASAQLSLCQKPNGLNRAEVQKLMVLPSARGRGLGRQLMDEVEQVAVKHKRGLLHLDTEAGSVAEAFYSALAYTRVGELPGYCATPDGRLHPTAIYFKTLGQPT” the “soluble on expression in E. coli” value was “soluble”.
With “MIEFTALDDLSLLRESVSLECKLAQGRDGKGALPDDFWPTYSAMANTDGGIVILGVRERKGQFEVAGIENPDKLRTELFNHLNNRQKVSVNLLRDEDVRAWPVEGKTLLVVEIPRARRQQRPVYLRGNPLGGHTYRRLHEGDRPLPDEDVKRMLAEQVEDSRDERILPGYGLDDLHLESLRAYRQLFANRDPSHPWNALADQAFLRQIGGWRQHRETGEAGLTLAGLLMFGQWSSITEAVPLCFLDYQERPADYATTVQWLDRIVPDGTWSGNVFDFYRRVVGKLTADIKVPFVLKGDIRQDDTPTHKALREALVNTLVHADYTGRISVLVVKEPAGFVLRNPGGLRVPAQQALQGGMSDCRNRTMQQMFLMIGLGERAGSGMSRIVHGWRDLGHELHLRESYEPHEHSVLEMFWAKGRGATLASESSEESSEESSEETGKKILHLLREEPSLTASALARRLQLTPRAIEKQLEHHHHHH” the “soluble on expression in E. coli” value was “not soluble”.
For “MGSDKIHHHHHHSSDDKDEQPILVTNVVMPASGTVFKPGEKVTIMAKGFQDNDEIMFDIRWPLQDEVLHEGYAKGGRGVITEKTATSITFLAPGHWPASTTEILLRRSGQMMSLGKISVADGQAPKDFQLYGIINSRSNTHRPHAIEYINLEKPQTAEIVRLADNQDFSCVVNLPGSWSLSGVWTKDDRRTTGLYDLSMNYWEKPGADQLVTMGIATANSVFGVYQGGDRLFVKTVNVMPYTRMYVPEKPDYGFLLPEGMKAEALSRYPCIQMSDGNILCSADNGDGTFSPVVLNGQNIEEKSIYVGEPIEAVALIPFWIVKPVEGMGTAKYTRVGGYIVSKRNGATITEGDGTEFRLWNPTTKMLDEPFTTFPNAACLVATLVSDDFKKQELYVLFDGSRNGRLIYVYDLLKGSWESLYPGGGFPYSEIVLAR”, the “soluble on expression in E. coli” value was “not soluble”.
For “LITPQYKSEAKLYILSKETTLTSLADLQIGSQLTQDYKVLVSSRPVMEGVINHLKLDYSYKELAGKLTVENPQNTRILSLTVRDENPYMAKQIVDDIANTASDYIGEIMEMVPPKMIEDGVVASEPYSPSIKRN”, the “soluble on expression in E. coli” value was “not soluble”.
With “MSNEGSREESREPEAREGKSDEIFEVEKILAHKVTDNLLVLQVRWLGYGADEDTWEPEEDLQECASEVVAEYYKKLKVTDKTELIELLQKQIKKNKSQKSKKRSKTVSDHESNHDSDGSYGTPKTSKKSKKSAKNETPVSSKVPKVPTKAALKSYEATVSGPVAPNNAKKAAMEVRDTRRNWLDEESSDDEAETTAPLSDVEKIASKVKVVKAVEEKAEEPVKRPSTPPKPREVVIKKDPSESPVASASSVIPTSKRKSINAETSNGRQRTLAPPVIVKDETTWTVDGIARHTDVDNTKTKLILMTNSATGERKVVEGREAFELDGWALAKYLLDRCEF” the “soluble on expression in E. coli” value was “soluble”.
For “SNTKKEIIWYKEKAQKTNYSVVYIHGFGASKNEIYPVPNNIAKALNANIFFTRLKGHGINNKNAFRGITTQDWLRDIDEAINIGKLIGDKLVLIGTSNGGTASIWALANYPNEINSAVLISPNIFPYDKRTNIVYYPWGRQIAYLITGGYNKFETKEYKRKEHPTIKSHSSRVQHVDAIIAMMGLVTLLNSYNFNEIKIPLIITHTPNDHTVDPIKINEFIKNYGGEKKDIPIILLENSHAHLPIGNQSYKSAQNTSYFTKYVFDFINKINK”, the “soluble on expression in E. coli” value was “not soluble”.
In the case of “MSSFQLQQLPSLPIKEVFKSLGVCDLLNLCRSSNKSRRLVKKSLKDITFTLKIVAEEKHYKIWLKEDFSKHKARIRAENSNGTSLFKNIRWLMHTFWVETVYLDCTNVEEGDVVKVVEYLKKEKPYYLKLYFECPMISDSLWQLMLNCEADVLIISVDREVKVTFDNVPLLFNCECIILHGVKFSEKGMNLLFKTWQSSKERTLQCVSLTRKLGPFWKKQANEKVVLKGIDVESVEKKRIFKVKKDGIKKSTTYNLVKNDGELATLKFDKQEICFHTENDR”, the “soluble on expression in E. coli” value was “not soluble”.
With “MIVMATCLLPDETDDACARNPWISHELVTSTVGPGDGLDLRAACSTGTLISGGCSADTFPDDELSLMRSGFAPDNRDEWLCSFKSLHESVTYEVATMAFCLNEDPLPAECGCCPPLAEQLTIRQTNEPLRNGPNRLEASCEDDEFLLIGNCMLDVPAVSEVESVTMFRYGYPPTDEHPDGDYSKWGCSWHNPTGYTPRALANAVCLPAQ” the “soluble on expression in E. coli” value was “not soluble”.
For “MSLKTGRTNTIVVLVPNLINPFFMRIIGGIEQAAQERGFTVLLCDTQGESKRESDYASMVLTNRADGLIQLDHSFPFTEDDAKLAETIPMVSVCERIHSDKKYPVVALDNYAASRALAHHLVSYGHTKFAVIVGQVVSQIHKDRLYGLRSVLAEEDIEFDEDMIVGQSYSIENGIEGMRQLLEKPNRPSAVICFNDDIAIGAMHEIHRQGLRVPEDISVVGFDNVKVAAFMNPPLTTIDQPAYEMGRRGMEILSDVINGVPLTRSSEMLPFQLLERESSGEGHHHHHH”, the “soluble on expression in E. coli” value was “not soluble”.
For “MSLAANPWNWFGSSTKVSEQGVGELTASTPLQEQAIADALDGDYRLRSGMKTANGNVVRFFEVMKGDNVAMVINGDQGTISRIDVLDSDIPADTGVKIGTPFSDLYSKAFGNCQKADGDDNRAVECKAEGSQHISYQFSGEWRGPEGLMPSDDTLKNWKVSKIIWRREGHHHHHH”, the “soluble on expression in E. coli” value was “soluble”.
In the case of “MKVMECQTYEELSQIAARITADTIKEKPDAVLGLATGGTPEGTYRQLIRLHQTENLSFQNITTVNLDEYAGLSSDDPNSYHFYMNDRFFQHIDSKPSRHFIPNGNADDLEAECRRYEQLVDSLGDTDIQLLGIGRNGHIGFNEPGTSFKSRTHVVTLNEQTRQANARYFPSIDSVPKKALTMGIQTILSSKRILLLISGKSKAEAVRKLLEGNISEDFPASALHLHSDVTVLIDREAASLRP”, the “soluble on expression in E. coli” value was “soluble”.
With “MFADLDYDIEEDKLGIPTVPGKVTLQKDAQNLIGISIGGGAQYCPCLYIVQVFDNTPAALDGTVAAGDEITGVNGRSIKGKTKVEVAKMIQEVKGEVTIHYNKLQADPKQGMSLDIVLKKVKHRLVENMSSGTADALGLSRAILCNDGLVKRLEELERTAELYKGMTEHTKNLLRAFYELSQTHRAFGDVFSVIGVREPQPAASEAFVKFADAHRSIEKFGIRLLKTIKPMLTDLNTYLNKAIPDTRLTIKKYLDVKFEYLSYCLKVKEMDDEEYSCIALGEPLYRVSTGNYEYRLILRCRQEARARFSQMRKDVLEKMELLDQKHVQDIVFQLQRLVSTMSKYYNDCYAVLRDADVFPIEVDLAHTTLAYGLNQEEFTDGEEEEEEEDTAAGEPSRDTRGAAGPLDKGGSWCDS” the “soluble on expression in E. coli” value was “soluble”.
In the case of “MSLSKDEELLQNYCSILFTYKTIGISNLHLYYFRETEIKSLKQLINAEFAILQTCNRVEIYLYSDTNTLKEVNKIIQYLNNIHNEPIGNQARVLCGKDAAKHLFLVASGADSLSIGEYEILSQIRSTIDMFKKLGFSGKYLQIFFERAIKVGRKVREETSISKGKVGIYSLAIDEAKKRFNDFYDRRILVIGAGEMAQKITSMLHNEGAKDVTIMNRTIEKAKQLALKFGYNYEKLDLDKLGNFDVAFISIYHENLRLENKWNTLIVDITVPPLFTGNNVITLEELERISNLNFKAREEELAKINKLVEDGINELLYDYKKEIYTEFMSKIMKREGHHHHHH”, the “soluble on expression in E. coli” value was “soluble”.
With “MSLKAVYIQKTGGPATIIVGSLPVPKVRPKSVLIKVIAASINYVDLFIRSGIYQTDLPNPYILGRDAIGQVVEIGKDVIQFKVGDCVWTNSMGYDGRQGITSEYALIPEERLFLTPKNADSLKLIGAVHSAATATIVLQDIMELKPKQKLLIEGAAGHVGSKLVYLANEMGAEVVTTASLKDFSRLKQLSDAICFDYRDKSLFKKLKSAYPDGFDHIIDTSGEIPLQFNCDLLAPKGVISLITAPKDSQFDSRQFYMNCQQMKGFVISHASLKQLKKAGRILNDAFRQGQLLEEDMVIKKFDKAAEAHDLMETKKENRKIILVEGHHHHHH” the “soluble on expression in E. coli” value was “not soluble”.
For “NFCVYMCPYSRVQSVLYDNDTIMTVYDYERGGKVFDPKGIKLWKKPETPNAECTGCELCVKVCPTHIDIRKGMQLECINCLECADAC”, the “soluble on expression in E. coli” value was “not soluble”.
For “MAQLYFYYSAMNAGKSTSLLQSSYNYRERGMNTLVMTASIDDRYGKGKVASRIGIESDAQVFSSHDNLIEMITAAHQENHLSCVLVDECQFLSKEQVKQLTYIVDKIDIPVLCYGLRTDFQGELFSGSHYLLAWADKLVELKTICHCGRKANMVVRLDGEGKVMREGEQVAIGGNESYESVCRKHFREFIWD”, the “soluble on expression in E. coli” value was “soluble”.
With “MPQTDKQVCIPPELPELLKQFTKDAIRTQPPDLIQWAAEYFGAMSRGEIPPVRERSEQIPLSNWAELTPELLKVLHSRVAGRLIIHADELAQMWKVLNLPTDLFNSVMNVGRFTEEIEWLKFLALACSSLGVTIAKTLKIVCEVLSSDHDGGPPRIPFSTFQFLYTYIAEVDGEISSSHVSRMLNYIEQEVIGPDGLIKVNDFTQNPRVRLE” the “soluble on expression in E. coli” value was “not soluble”.
